Source: the RNAGym collection of RNA variant scans (doi:10.1073/pnas.2313332121)

B1: TPR t1 (parent)
chain: GACCAAUCUGCCCUCAGAGCUCGAGAACAUCUUCGGAUGCAGAGGAGGCAGGCUUCGGUGGCGCGAUAGCGCCAACGUCCUCAACCUCCAAUGCAUCCCACCACAUGAUGAUGCCUGAAGAGCCUUGGUUUUUUG

Variants of: B1
Test: polymerase ribozyme fitness, log enrichment relative to wild type (log ratio); higher = more active; in vitro selection for triplet polymerase activity
Summary of the method: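 Mutant libraries of each subunit of a heterodimeric triplet polymerase ribozyme were built by PCR and transcribed. Each library went through one round of in vitro selection in triplicate: annealing with biotinylated primer, partner subunit and triplets, frozen incubation at −7 °C, gel excision of extended constructs, streptavidin-bead capture and RT-PCR. Input and output libraries were Illumina-sequenced; only genotypes with ≥10 input reads and ≥1 read per output were kept. Fitness is log2(genotype enrichment/wild-type enrichment), using inverse-variance-weighted replicate averages.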

| Variant | polymerase ribozyme fitness (log ratio) |
| --- | --- |
| GACCAAUCUGCCGUCAGAGCUCGAGAACAUCUUCGGAUGCAGAGGAGGCAGGCUUCGGUGGCUCGAUAGCGCCAACGUCCUCAACCUCCAAUGCAUCCCACCACAUGAUGAUGCCUGAAGAGACUUGGUUUUUUG | -0.659 |
| GACCAAUCUGCCGUCAGAGCUCGAGAACAUCUUCGGAUGCAGAGGAAGCAGGCCUCGGUGGCGCGAUAGCGCCAACGUCCUCAACCUCCAAUGCAUCCCACCACAUGAUGAUGCCUGAAGAGCCUUGGUUUUUUG | -2.54 |
| GACCAAUCUGCCGUCAGAGCUCGAGAACAUCUUCGGAUGCAGAGGAGGCAGUCUUCGGUGGCGCGAUGGCGCCAACGUCCUCAACCUCCAAUGCAUCCCACCACAUGAUGCUGCCUGAAGAGCUUUGGUUUUCUG | -4.14 |
| GACCAAUCUGCCGUCAGAGCUCGAGAACAUCUUCGGAUGCAGAGGAGGCAGUCUUCGGUGGCGCGAUAGUGCCAACGUCCUCAACCUCCAAUGCAUCCCACCACAUGAUGAUGCCUGAAGAGACUUGGUUUUUUG | -1.13 |
| GACCAAUCUGCCGUCAGAGCUCGAGAACAUCUUCGGAUGCAGAGGAUGUAGGCUUCGGUGGCGCGAUAGCGCAAACGUCCUCAACCUCCAAUGCAUCCCACCACAUGAUGAUGCCUGAAGAGCCUUGGUUUUUUG | -3.52 |
| GACCAAUCUGCCGUCAGAGCUCGAGAACAUCUUCGGAUGCAGAGGAGGCAAGCUUCGGUGGCGCGAUAGCGCCAACGUCCUCAACCUCCAAUGCAUCCCACCACAUGAUGAUGCCUGAAGAGCCUUGGUUUUUUG | -4.69 |
| GACCAAUCUGCCGUCAGAGCUCGAGAACAUCUUCGGAUGCAGAGGAGGCAGGCUUCGGUGGCGCGAUAACGCCAACGUCCUCAACCUCCAAUGCAUCCCACCACAUGAUGAUGCCUGAAGAGCCUUGGUUUAUUG | -3.7 |
| GACCAAUCUGCCGUCAGAGCUCGAGAACAUCUUCGGAUGCAGAGUAGGCAGGCUUCGGUGGCGCGAUAGCGCCAACGUCCUUAACCUCCAAUGCAUCCCACCACAUGAUGAUACCUGAAGAGCCUUGGUUUUUUG | -2.94 |
| GACCAAUCUGCCGUCAGAGCUCGAGAACAUCUUCGGAUGCAGAGGAGUCAGGCUUCGGUGGCGCGAUAGCGCCAACGUCCUCAACCUCCAAUGCAUCCCACCACAUGAUGAUGCCUGAAGAGCCUUGGUUUUUUG | -2.21 |
| GACCAAUCUGCCGUCAGAGCUCGAGAACAUCUUCGGAUGCAGAGGAGGCAGGCUUCGGUGGCUCGAUAGCGCCAACGUCCUCAACCUCCAAUGCAUCCCACAACAUGAUGAUGCCUGAAGAGCCUUGGUUUUUUG | -5.61 |
| GACCAAUCUGCCGUCAGAGCUCGAGAACAUCUUCGGAUGCAGAGGAGGCAGUCUUCGGUGGCGCGAUAGCGCCAGCGUCCUCAACCUCCAAUGCAUCCCACCACAUGAUGAUGCCUGAAGAGCCUUGGUUUUUUG | -3.6 |
| GACCAAUCUGCCGUCAGAGCUCGAGAACAUCUUCGGAUGCAUAGGAGGCAGGCUUCGGUGGCGCGAUAGCGCCAACGUCCUCAACCUCCAAUGCAUCCCACCACAUGAUGAUGCCUGAAGAGCCUUGGUUUUUUG | -2.84 |
| GACCAAUCUGCCGUCAGAGCUCGAGAACAUCUUCGGAUGCAGAGGAGGCAGGCUUCGGUUGCGCGAUAGCGCCAACGUCCUCAACCUCCAAUACAUCCCACCAUAUGAUGAUGCCUGAAGAGCCUUGGAUUUUUG | -4.29 |
| GACCAAUCUGCCGUCAGAGCUCGAGAACAUCUUCGGAUGCAGAGGAGGCAGGCUUCGGUGGCCCGAUAGAGCCAACGUCCUCAACCUCCAAUGCAUCCCACCACAUGAUGAUGCCUGAAGAGCAUUGGUUUUUUG | 0.905 |
| GACCAAUCUGCCGUCAGAGCUCGAGAACAUCUUCGGAUGCAGAGGAGUCAGGAUUCGGUGGCGCGAUAGCGCCAACGUCCUCAACCUCCAAUGCAUCCCACCACAUGAUGAUGCCUGAAGAGCCUUGGUUUUUUG | -2.34 |
| GACCAAUCUGCCGUCAGAGCUCGAGAACAUCUUCGGAUGCAUAGGAGGCAGGAUUCGGUGGCGCGAUAGCGCCAACGUCCUCAACCCUCAAUGCAUCCCACCACAUGAUGAUGCCUGAAGCGACUUGGUUUUUUG | -0.648 |
| GACCAAUCUGCCGUCAGAGCUCGAGAACAUCUUCGGAUGCAGAGGAGACAGGCUUCGGUGGCGCGAUAGCGCAAACGUCCUCAACCUCCAAUGCAUCCCACCACAUGAUGAUGCCUGAAGAGCCUUGGUUUUUUG | -1.93 |
| GACCAAUCUGCCGUCAGAGCUCGAGAACAUCUUCGGAUGCAGAGGAGGCACGCUUCGGUGGCGCGAUAGCGCCAACGUCCUCAACCUCCAAUGCAUCCCACCAUAUGAUGAUGCCUGAACAGCCUUGGUUUUUUG | -4.18 |
| GACCAAUCUGCCGUCAGAGCUCGAGAACAUCUUCGGAUGCAGAGGAUGCAGGCUUCGGUGGCGCGAUAGCGCCAACGUCCUCAACCUCCAAUGCAUCCCACCACAUGAUGAUGCCUGAAGAGCCUUGGUUUUUUG | -3.12 |
| GACCAAUCUGCCGUCAGAGCUCGAGAACAUCUUCGGAUGCAGAGGAGGCAGGCUUCGGUGGCGCGAUAACGCCAACGUCCUCAACCUCCAAUGCAUCCCACCACAUGAUGAUGCCUGAAGAGCCUUGGUUUUUUG | -3.66 |
| GACCAAUCUGCCGUCAGAGCUCGAGAACAUCUUCGGAUGCAGAGGAGGCAUGCUUCGGUGGCGCGAUAGCGGCAACGUCCUCAACCUCCAAUGCAUCCCACCACAUGAUGCUGCCUGAAGAGCCUUGGUUUUUUG | -6.15 |
